Source: patent US20050020519A1, “Modulation of insulin-regulated aminopeptidase (irap)/angiotensin iv (at4) receptor activity” (priority 2001, published 2005)
Entries after “also recorded” stand apart in the source; their conditions may differ. Where two headings read alike, the source gives them in different places. Where no end group is shown, it is not given here. [ ]: non-standard residue; d: D form. Cyt = cystine residue, as named in the source; pGlu = O=C1CC[C@@H](C(=O)O)N1

T1: AT4 receptor (Bos taurus, UniProt F1N1Q8)
T1 construct: from tissue; host or cells: bovine adrenal gland membranes
T1 sequence (F1N1Q8 1-1022): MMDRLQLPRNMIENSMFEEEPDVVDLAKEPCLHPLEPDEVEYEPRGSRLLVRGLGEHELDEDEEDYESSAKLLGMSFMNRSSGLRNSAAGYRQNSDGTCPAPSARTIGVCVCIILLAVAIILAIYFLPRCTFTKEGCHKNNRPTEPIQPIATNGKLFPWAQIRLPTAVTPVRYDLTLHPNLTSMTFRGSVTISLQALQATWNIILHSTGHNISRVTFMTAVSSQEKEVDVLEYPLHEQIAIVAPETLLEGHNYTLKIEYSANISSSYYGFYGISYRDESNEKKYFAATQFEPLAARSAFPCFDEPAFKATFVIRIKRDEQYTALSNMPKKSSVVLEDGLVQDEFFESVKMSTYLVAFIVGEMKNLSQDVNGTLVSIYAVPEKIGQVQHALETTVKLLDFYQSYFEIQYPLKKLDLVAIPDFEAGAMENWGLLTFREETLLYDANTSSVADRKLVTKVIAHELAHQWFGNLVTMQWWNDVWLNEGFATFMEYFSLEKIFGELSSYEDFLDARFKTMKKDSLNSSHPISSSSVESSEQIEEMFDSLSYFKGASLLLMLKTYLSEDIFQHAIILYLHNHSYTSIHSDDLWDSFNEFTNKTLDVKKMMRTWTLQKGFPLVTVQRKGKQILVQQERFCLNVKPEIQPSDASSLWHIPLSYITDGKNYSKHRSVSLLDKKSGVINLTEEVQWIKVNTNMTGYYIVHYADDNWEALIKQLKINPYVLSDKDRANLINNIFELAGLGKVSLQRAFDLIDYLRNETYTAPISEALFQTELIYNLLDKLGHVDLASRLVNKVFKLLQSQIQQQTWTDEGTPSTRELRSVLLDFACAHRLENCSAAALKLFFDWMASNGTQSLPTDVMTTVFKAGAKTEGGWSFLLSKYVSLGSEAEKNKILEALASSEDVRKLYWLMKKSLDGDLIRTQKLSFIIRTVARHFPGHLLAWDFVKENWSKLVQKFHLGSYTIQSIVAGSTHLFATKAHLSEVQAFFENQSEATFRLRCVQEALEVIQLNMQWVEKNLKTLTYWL

B1: Met-enkephalin (peptide, UniProt P01210 100-104, looked up)
peptide: YGGFM
B2: KYLPGPLQ (complexin II fragment) (peptide)
peptide: KYLPGPLQ
notes: Purified from blood-free sheep cerebral cortex; synthetic peptide used in the assays; also called complexin fragment

Key:
[1] = target: human insulin-regulated aminopeptidase (IRAP) / angiotensin IV (AT4) receptor (human) (UniProt Q9UIQ6); experiment: radioligand binding, HEK 293 and CHO cells transfected with IRAP cDNA
Chain of human insulin-regulated aminopeptidase (IRAP) / angiotensin IV (AT4) receptor (human) (Q9UIQ6 whole entry): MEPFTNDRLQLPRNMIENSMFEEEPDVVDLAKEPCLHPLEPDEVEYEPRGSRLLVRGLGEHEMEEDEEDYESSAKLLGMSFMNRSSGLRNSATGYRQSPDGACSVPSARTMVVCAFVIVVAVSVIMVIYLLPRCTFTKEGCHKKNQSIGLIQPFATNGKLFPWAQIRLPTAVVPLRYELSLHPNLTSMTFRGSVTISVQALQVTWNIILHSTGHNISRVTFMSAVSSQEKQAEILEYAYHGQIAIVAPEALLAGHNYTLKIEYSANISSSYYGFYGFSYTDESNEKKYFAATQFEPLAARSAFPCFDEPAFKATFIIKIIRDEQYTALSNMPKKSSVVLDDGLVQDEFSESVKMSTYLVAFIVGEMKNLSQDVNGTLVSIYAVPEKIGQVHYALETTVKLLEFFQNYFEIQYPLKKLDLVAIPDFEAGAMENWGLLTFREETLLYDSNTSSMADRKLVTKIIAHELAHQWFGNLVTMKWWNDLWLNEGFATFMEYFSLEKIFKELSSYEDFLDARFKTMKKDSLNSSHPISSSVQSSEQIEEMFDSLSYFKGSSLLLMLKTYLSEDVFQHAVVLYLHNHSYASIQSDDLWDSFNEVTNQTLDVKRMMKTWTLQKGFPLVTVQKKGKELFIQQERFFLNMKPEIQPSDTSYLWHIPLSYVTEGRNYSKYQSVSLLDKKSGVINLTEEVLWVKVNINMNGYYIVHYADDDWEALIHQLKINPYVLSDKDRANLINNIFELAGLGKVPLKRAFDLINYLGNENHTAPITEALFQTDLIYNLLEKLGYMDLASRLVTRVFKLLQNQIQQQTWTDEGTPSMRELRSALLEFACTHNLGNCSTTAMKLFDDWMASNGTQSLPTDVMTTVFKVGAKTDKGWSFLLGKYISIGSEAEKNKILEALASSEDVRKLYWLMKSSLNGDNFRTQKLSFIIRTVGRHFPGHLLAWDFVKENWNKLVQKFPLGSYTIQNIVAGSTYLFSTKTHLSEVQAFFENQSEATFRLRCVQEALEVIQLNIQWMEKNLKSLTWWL

[2] = target: human insulin-regulated aminopeptidase (IRAP) / angiotensin IV (AT4) receptor (human) (UniProt Q9UIQ6); experiment: cell-based or functional assay
[3] = target: human insulin-regulated aminopeptidase (IRAP) / angiotensin IV (AT4) receptor (human) (UniProt Q9UIQ6); experiment: radioligand displacement of 125I-Nle-Ang IV
[4] = target: human insulin-regulated aminopeptidase (IRAP) / angiotensin IV (AT4) receptor (human) (UniProt Q9UIQ6); experiment: competitive inhibition of L-leucine-β-naphthylamide cleavage by solubilised membranes of IRAP-transfected HEK 293 cells; Ki from IC50=Ki(1+[S]/Km)
IRAP [5] = target: T2, IRAP (Homo sapiens, UniProt Q9UIQ6); experiment: IRAP enzymatic activity, hydrolysis of L-leucine-β-naphthylamide (fluorescence); type: biochemical
T2 construct: expressed in transfected cells; host or cells: HEK 293T cells (solubilised membrane protein)
T2 sequence (Q9UIQ6 whole entry): as above
Excerpt: For example, Hek293 cells stably transfected with a eukaryotic expression vector expressing the AT4 receptor gene may be utilized. An example of this is the vector pcDNA-3 containing the cDNA encoding the full length AT4 receptor. Two assay systems are used, one for each spliced variant of the human AT4 receptor gene. The assay system involves the measurement of the rate of hydrolysis of L-leucyl β-naphthylamide by the AT4 receptor. The rate of hydrolysis by the transfected cells is followed by recording the increase in fluorescence (excitation at 340 nm, emission at 410 nm) using a purpose-designed fluorimeter. Test compounds are added to the assay system, and their effects on the hydrolysis of L-leucyl β-naphthylamide are a direct indicator of their modulation of AT4 receptor activity.
Crude membranes were prepared from HEK 293 cells stably transfected with pcDNA-3 containing the cDNA encoding the full length AT4 receptor/IRAP, using the same method as that described for bovine adrenal membranes. The membranes were solubilised in 50 mM Tris-HCl containing 1% Triton-X100 at 4° C. for 16 h. The IRAP enzymatic activity was determined by the hydrolysis of a synthetic substrate, L-leucine-β-naphthylamide, and monitored by the release of a fluorogenic product on a spectrophotometer set at excitation 340 nm and emission 410 nm. One hundred μM of the substrate was added to 10 μg of solubilised membranes, and the increase in fluorescence monitored for 10 min.
Samples were assayed 2-3 times in triplicate, except controls, which were performed 5 times in triplicate.

IRAP [6] = target: T2, IRAP; experiment: Degradation of peptides by IRAP expressed in HEK 293T cells, HPLC with mass spectrometric detection; type: biochemical; conditions: for Substrate disappearance over 4 hr: 37° C., hIRAP transfected HEK 293T membranes, (=UT) equals untransfected control cells; for Products Identified: incubation at 37° C. with solubilized membrane protein from hIRAP transfected HEK 293T cells; for cleavage by IRAP: up to 6 hr
Protocol: At each time point (0, 0.5, 1, 2, 4 & 6 hr), an aliquot containing 5 μg peptide was removed, and the reaction stopped by addition of 4 volumes methanol/1% trifluoroacetic acid (TPA). Samples were dried on a centrifugal vacuum evaporator prior to HPLC analysis with on-line mass spectrometric detector. […] Fragments were identified following mass spectral analysis, using Agilent ChemStation deconvolution software.

AT4 receptor = target: T1, AT4 receptor; experiment: AT4 radioreceptor assay, ^125I-Ang IV binding to bovine adrenal membranes
Protocol: The AT4 radioreceptor assay was used to screen the sheep brain extracts for AT4 receptor modulatory activity. The membranes were prepared using bovine adrenal glands obtained from the abattoir. The adrenals were diced, homogenized in ice-cold hypotonic buffer (50 mM Tris, 5 mM EDTA, pH 7.4) and centrifuged for 10 min at 500 g. […] The resulting pellets were re-homogenized in hypotonic buffer. […] The samples were incubated for 2 h at 37° C., and the bound ligand was separated on Whatman GF/B glass fibre filters.

3T3L1 cells = experiment: 2-deoxyglucose uptake in differentiated 3T3L1 adipocytes
Protocol: The effect of IRAP inhibitors on the regulation of glucose uptake was determined in 3T3L1 cells. 3T3L1 fibroblasts were differentiated by the addition of DMEM containing 5% fetal calf serum, 4 μg/ml insulin, 0.25 mM dexamethasone and 0.5 mM 3-isobutyl-1-methyl-xanthine. […] The reaction was stopped after 10 min by washing the cells in PBS. The cells were then solubilized in 0.5 N NaOH and counted.

rats = conditions: rat, in vivo, iv; cited from earlier work
IRAP (AT4 receptor) = target: T3, IRAP (AT4 receptor) (Homo sapiens, UniProt Q9UIQ6); experiment: ^125I-Nle^1 Ang IV binding to membranes of HEK 293 cells transfected with IRAP cDNA
T3 construct: expressed in transfected cells; host or cells: HEK 293 cells (membranes)
T3 sequence (Q9UIQ6 whole entry): as above
Excerpt: The amount of radioligand bound to the membranes from HEK 293 cells transfected with IRAP cDNA was expressed as a percentage of radioligand bound to membranes from HEK 293 cells transfected with control plasmids.

[7] = target: human insulin-regulated aminopeptidase (IRAP) / angiotensin IV (AT4) receptor (human) (UniProt Q9UIQ6); experiment: cell-based or functional assay; remark: listed apart in the source
[8] = target: T4, human insulin-regulated aminopeptidase (IRAP) / angiotensin IV (AT4) receptor (human, UniProt Q9UIQ6 1-1025); experiment: competition with 125I-Nle1 Ang IV on IRAP-transfected cells
T4 construct: whole, on cells; also called AT4 receptor/IRAP; hIRAP
T4 sequence (Q9UIQ6 whole entry): as above

Molecule | Substrate disappearance over 4 hr (IRAP [6]) | Products Identified (IRAP [6]) | cleavage by IRAP (IRAP [6]) | also measured
Nle^1-Ang IV (Nle-YIHPF) (peptide) |  |  |  | fold increase in specific binding sites over control cells [1]: 10 to 20 fold; IC50 inhibition leucine β-naphthylamide [2]: 600 nM; Substrate disappearance over 4 hr [2]: 16%; IC50 [3]: 3.32 nM; Ki [4]: 340 nM
CC(C)C[C@H](NC(=O)[C@@H](O)[C@H](N)Cc1ccccc1)C(=O)O [bestatin] |  |  |  | inhibition at 10 µM (IRAP [5]; 10 μM bestatin): 60%
oxytocin (from UniProt P01178 20-28) (peptide) |  |  |  | Substrate disappearance over 4 hr [2]: 37%
divalinal-Ang IV (peptide) |  |  |  | IC50 inhibition leucine β-naphthylamide [2]: 4000 nM
α-Endorphin (YGGFMTSEKSQTPLVT) [16 residues, first five identical to met-enkephalin] | None | None | not cleaved at all | 
KYLPGPLQ |  |  |  | Ki (AT4 receptor; bovine adrenal membranes, synthetic peptides, read-out: affinity in competing for ^125I-Ang IV binding): 1 to 5 nM
Met-enkephalin | 65% | GGFM | most rapidly cleaved | 
angiotensin III [Ang III] | 7% (=UT) | RVYIHP |  | 
insulin |  |  |  | glucose uptake under insulin stimulation (3T3L1 cells; 0.7 nM insulin): 13.5±2.6 pmol/min/well; glucose uptake under insulin stimulation (3T3L1 cells; 70 nM insulin): 19.7±1.18 pmol/min/well
acetylated AVP [AcAVP] | None | None | No cleavage | 
CC[C@H](C)[C@@H]1NC(=O)[C@H](Cc2ccc(O)cc2)NC(=O)[C@@H](N)CSSC[C@@H](C(=O)N2CCC[C@H]2C(=O)N[C@@H](CC(C)C)C(=O)NCC(N)=O)NC(=O)[C@H](CC(N)=O)NC(=O)[C@H](CCC(N)=O)NC1=O [OXY, oxytocin] | 37% | YIQNCytPLG-NH2 | most rapidly cleaved | 
Angiotensin III (from UniProt P01019 26-32) (peptide) |  |  |  | Substrate disappearance over 4 hr [2]: 7%
α-neo-Endorphin (from UniProt P01213 175-184) (peptide) |  |  |  | Substrate disappearance over 4 hr [2]: 9%
CC(C)C[C@@H](N)[C@H](O)C(=O)N[C@H](C(=O)N[C@H](C(=O)N[C@@H](CC(=O)O)C(=O)O)C(C)C)C(C)C [amastatin] |  |  |  | inhibition at 100 µM (IRAP [5]; 100 μM amastatin): 25%
α-neo-Endorphin (YGGFLRKYPK) [opioid peptide, 10 residues] | 9% | GGFLRKYPK,; also recorded: GFLRKYPK, FLRKYPK | at least three N-terminal residues were cleaved | 
[pGlu^4Cyt^6]AVP(4-9) ([pGlu]N[Cyt]PRG; ends and bridges not checked; also: Cyt6: cystine at position 6, partner not given here) [pGlu^4Cyt^6AVP] | None | None | No cleavage | 
CC(C)[C@H](N)CN[C@@H](Cc1ccc(O)cc1)C(=O)N[C@H](CN[C@@H](Cc1c[nH]cn1)C(=O)N1CCC[C@H]1C(=O)N[C@@H](Cc1ccccc1)C(=O)O)C(C)C [Divalinal - Ang IV] | None | None | no cleavage | effect on the swim maze enhancement by Nle-angiotensin IV (rats): blocked; IC50 (IRAP [5]): 4000 nM; Ki (IRAP [5]): 2250 nM; type of inhibition of IRAP (IRAP [5]; Lineweaver-Burk analysis): competitive inhibition; IC50 (IRAP (AT4 receptor)): 845 nM
Ang I: angiotensin peptide (DRVYIHPFHL) | None | None | no cleavage | 
arginine-vasopressin (from UniProt P01185 20-28) (peptide) |  |  |  | IC50 of inhibition of L-leucine-β-naphthylamide cleavage [2]: > 40000 nM
VYPWT |  |  |  | AT4 receptor/IRAP binding activity of fragment (AT4 receptor; structure-activity study on LVVYPWTQRF): retained full AT4 receptor/IRAP binding activity
NC(=O)CC[C@@H]1NC(=O)[C@H](Cc2ccccc2)NC(=O)[C@H](Cc2ccc(O)cc2)NC(=O)[C@@H](N)CSSC[C@@H](C(=O)N2CCC[C@H]2C(=O)N[C@@H](CCCN=C(N)N)C(=O)NCC(N)=O)NC(=O)[C@H](CC(N)=O)NC1=O [AVP, arginine-vasopressin] | 58% | YFQNCytPRG-NH2; also recorded: FQNCytPRG-NH2 | most rapidly cleaved | IC50 (IRAP [5]): > 40000 nM
GnRH: peptide tested as potential IRAP substrate | None | None | No cleavage | 
sar^1Ile^8-Ang II | None | None |  | 
Neurotensin (from UniProt P30990 151-163) (peptide) |  |  |  | Substrate disappearance over 4 hr [2]: 22%
angiotensin II (DRVYIHPF) [Ang II] | None | None | no cleavage | 
B1 |  |  |  | Substrate disappearance over 4 hr [7]: 65%
B2 |  |  |  | binding result [8]: binds
